Assay: yeast display, Sf9 membrane polyspecificity reagent, FACS + sequencing; frameworks hold sequencing errors
Procedure, shortened: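 Synthetic nanobody libraries on Saccharomyces cerevisiae BJ5465 were galactose-induced for 36–48 hours, stained 1 hour at 4 °C with 10% biotinylated, detergent-solubilized Sf9 membrane reagent and enriched on streptavidin microbeads. FACS then separated cells into low and high (top ~1%) gates by anti-HA (expression) and streptavidin (reagent binding) fluorescence. Genes were colony-PCR amplified, MiSeq 2 × 250 sequenced and CDR-length filtered. A clone's polyreactivity label is that of its gate of origin.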

Sequence | polyreactivity (PSR sort gate)
QVELVVSGGGLVQAGGSLRLSCAASGRIFYRYAMGWYRQAPGKERELVAAISGRGGSTYYADSVKGRFTISRDNAKNTVYLQMNSLKPEDTAVYYCNALPVYRSLAYEVDYWGQGTQVTVSS | high polyreactivity
QVQLVESGGGLVQAGGSLRLSCAASGRTFIFYAMGWYRQAPGNERELVAAITLRGGGTDYADSVKGRFTISRDNAKYNVYLQMNSQKPEETAVYYCNADGYAVPRWFDPYSYLSDYWGQGTQVTVSS | low polyreactivity
QVQLVESGGGLVQAGGSLRLSCAASGFTFGNNAMGWYRQAPGTERELVAAISYGGGRTYYADSVKGRFTISRDNAKNTVYLQMNSLKPEDTAVYYCAKDPKYPLSGGYDYWGQGTQVTVSS | low polyreactivity
QVQLVESGGGLVQAGGRLRLSCAGSGRIFISNTMGWYRQGPGKERELVASISLRGGSTYYADSVKGRFTISRDNAKNSVYLQMNSLKPEDTAVYYCAAATLRQYDDEYWGQCTQVTVSS | high polyreactivity
QVQLVESGGGLVQAGGSLRLSCAASGFTFSSYAMGWSRQAPGKERELVAAITISGGRTYYADSVKGRFTISRDNAKNTVYLQMNSLIPEDTAVYYCAAVGRLARRDYWGQGTQVTVSS | high polyreactivity
QVQLVESGGGLVQAGGSLRLSCAASGRTFKRNAMGWYRQAPGKEREFVAVITGSGGSTYYADSVKGRFTISRDNAKNTVYLQMNSLKPEDTAVYYCAAQATRYGQYTYDYWGQGTQVTVSS | high polyreactivity
QVQLVESGGGLVQAGGSLRLSCAASGFTLSWYAMGWYRQAPGKERELVATISRGGITYYADSVKGRFTLSRDNANNTVYVQMNSLKPEDTAVYYCAADYRYGWYRYDYWGQGTQVTVSS | high polyreactivity
QVQLVESGGGLVQAGGSLRLSCAASGSTFWSYAMGWYRQAPGKERELVADIRWSGDGTYYADSVKGRFTISRDNAKITVYLQMNSLKPEDTAVYYCAADYFPVNSYGYWGQGTQVTVSS | low polyreactivity
QVQLVESGGGLVQAGGSLRLSCAASGIILRYYVMGWYRQAPGKERELVAAITSRGGSTYYADSVKGRFTISRDNAKITVYLQMNSLKPEDTAVYYCAAGYRNVNTFDYWGQGTQVTVSS | high polyreactivity
QVQLVESGGGLVQAGGSLRLSCAASGSIFSGYAMGWYRQAPGKESDLVAAISGSGGSTFYADSVKGRFTISRDYAKNTVYLQMNSLKPEDTAVYFCAARRIAPYGRYDYWGQGTQVTVSS | low polyreactivity
QVQLVESGGGLDQAGGSLRLSCAGSGSIFTSYAMGWDIQAPGKERELVAAISQSGGDTYYADSVKGRFTISRDNAKNTVYLQMNSLKPEDTAVYYCAASVWYYPMDYWGQGTQVTVSS | low polyreactivity
QVQLEESGGGLVQAGGSLRLSCAASGSIFKRKAMGWSRQAPGKERELVASISSGGSTHYADSVKGRFTISRDNAKNTVYLQMNSLKREDTAVYYCAATSIRWSVGSFRRDYWGQGTQVTVSS | low polyreactivity
QVQLVESGGGLVQAGGSLRLSCAASGSIFARYAMGWYRQAPGKERELVAAISSDGSTYYADSVKGRFTISRDNEKNTVYLQMNSLKPEDTAVYYCNTQFRYPQKYDYWGQGTQVTVSS | high polyreactivity
QVQLEESGGGLVQAGGSLRLSCAASGRIFTYYGMGWYRQAPGKERELVAAITRSGGSTRYADSVKGRFTISRDNAKNTVYLQMNSLKPEDTAVYFCAKTHYGVQRLDSCGQGTQVTVSS | low polyreactivity
QVQLVESGGGLVQAGGSLRLSCAASGITFRYYAMGWSRQAPWKERELVAVISSTGITNYADSVKGRFTISRDNAKNTVYLQMNSLKPEDTAVYYCAAGLWYSYDYWGQGTQVTVSS | high polyreactivity
QVQLVESGGGLVQAGGSLRLSCAASGFILYQNALGWYRQAPGKERELVAAITESDGITYYADSVKGRFTISRDNAKNTVYLQMNSLKPEDTAVYDCNTGFSYTYDYWGQGTQVTVSS | low polyreactivity
QVQLVESGGGLVQAGGSLRLSCAASGSIFRRNAMGWYRQAPGKERELVAAISQSGGSTYYADSVKGRFTISRDNAKNTVYLQMNSLKPEDTAVYYCAAKAHTVGGYAYYHTSTYYWGQGTQVTVSS | high polyreactivity
QVQLVESGGGLVQAGGSLSLSCADSGRNFAPYAMGWYRQAPGKERELVAAITSGGSTNYADSVKGRFTISRDNAKNTVYLQMNSLKPEDTAVYYCAARQPGTRYPYDYWGQGTQVTVSS | high polyreactivity
QVQIVESGGGLVQAGVSLRISCAASGSTFADYTMGWYRQAPGKERELVAAISQSGARTYYADSVKGRFTISRDNAKNTVYLQMNSLKPEDTAVYYCAATKAASGPYFRYYYWGQGTQVTVSS | high polyreactivity
QVQLVESGGGLVQAGGSLRLSCAASGFTFDNYTMGWYRQAPGKERELVAAITSSAGSTDYADSVKGRFTISRDNAKNTVYLQMNSLKPEDTAVYYCNDDFLYGTYDYWGQGTQVTVSS | low polyreactivity
QVQLVESGGGLVQAGGSLRLSCAASGSIFPRNAMGWSRQAPGKERELVARINSGGTTKYADSVKGRFTISRDNAKNTVYLQMNSLKPEDTAVYYCNADTYILDPLRKSYGYDYWGQGTQVTVSS | low polyreactivity
QVQLVESGGGLVQAGGSLRLSCAASGRIFGVYTMGWYRQAPGKERELVAVISRRGGRTYYADSVKGRFTISRDNAKNTVYLQMNSLKPEDTAVYYCARDSTYSSYTSNDYWGQGTQVTVSS | high polyreactivity

Sequence | polyreactivity (PSR sort gate)
QVQLVESGGGLVQAGGSLRLSCAASGSIFNTNAMGWYRQAPGKERELVAAISKNAGRTFYADSVKGRFTISRDNAKNTVYLQMNSLKPEDTAVYYCAARGVGPQPGYQRFNYWGQGTQVTVSS | high polyreactivity
QVQLVESGGGLVQAGGSLRLSCAASGRTFTDYTMGWSRQAPGKERELVASISSGVTYADSVKGRFTISRDNAKYTVYLQMNSLKPEDTEVYYCAARLWYVQGYVPYVHHRFDYWGQGTQVTVSS | low polyreactivity
QVQLVESGRRLVQAGGSLRLSCAASGSTFYGYGMGWYRQAPGKERELVAAITGSGDTTYYADSVKGRFTISRDNAKNTVYLQLNSLKPEDTAVDYCNARWHAEYDYWGQGTQVTVSS | low polyreactivity
QVQLVESGGGLVQAGGSLRLSCAASGSTSVQYAMGWYRQAPGKERELVAAIDRSGGSTSYADSVKGRFTISRDNAKNTVYLQMNTLKPEDTAVYYCNADPVRSTYSYDYWGQGTQVTVSS | low polyreactivity
QVQLVESGGGLVQAGGSLRLSCAASGIILSPYTMGWYIQAPGKERELVAGISRSGGTTYYADSVKGRFTISRDNAKNTVYLQMNSLKPEDTAVYYCAAGLIYGYSGYDSWGQGTQVTVSS | low polyreactivity
QVQLVESGGGLVQAGGSLRLSCAASGLTFVQYAMGWYRQAPGKERELVATISKSGGFTYYADSVKGRFTISRDNATNTVYLQMNSLKPEDTAVYYCAAAWYYSSRGFHASWGHDYWGQGTQVTVSS | low polyreactivity
QVQLVESGGGLVQAGGSLRLSCAASGLIFWYYAMGWYRQAPGKERELVAVITRSDASTYYADSVKGRFTISRDNAKNTVYVQMNSLKPEDTAVYYCAAYIRYGYSPWGYDYWGQGTQVSVSS | low polyreactivity
QVQLVESGGGLVQAGGSLRLSCAASGRTFAFNAMGRYRQAPGKEMELVAAISRSGGSTYYADSVKGRFTISRDNAKNTVYLQMNSLKPEDTAVYYCNAYYNRYPGYDYWGQGTQVTVSS | high polyreactivity
QVQLVESGGGLVQAGGSLRLSCAASGRIFTFYAMGWYRQAPGKERELVAAITSGGSTYYADSVKGRFTISRDNAKNTVYLQMNSLKPEDTAVYYCNALHHTQHDYWGQGTQVTVSS | low polyreactivity
QVQLVESGGGLVQGGGSLRLSCAASGINFGLYTMGWYRQAPGKERELVAAISDSGGRTYYADSVKGRFTISRDNAQNTVYLQMNSLKPEDTSVYYCAAEFWYVWEYNYWGQGTQVTVSS | high polyreactivity
QVQLQESGGGLVQAGGSLRLSCAASGTISDRAGMGWYRQAPAKNAIVANIDRGTNTNYADSVKGRFTISRDNAKNTVYLQMNSLKPEDTAVYNCAADGRYYIYLDYWGQGTQVTVSS | low polyreactivity
QVQLVESGGGLVQAGGSLRLSCAASGSTFWHYAMGWYRQAPGKERELVAAISSGGGRTYYADSVKGRFTISRDNAKNTVYLQMNSLKPEDTAVYYCAARYYFYDYWGQGTQVTVSS | high polyreactivity
QVQLVESGGGLVQAGGSLRLSCAASGSILGVYAMGWYRQAPGKERELVAAISSGGRTYYADSVKGRFTISRDNAKNTVYLQMNSLKPEDTAVYYCNAVSGSFLKYSRYYWGQGTQVTVSS | high polyreactivity
QVQLVESAVGLVQAGGRLRLSCAASGRIFVFNAMGWYMQAPGKERELVAAITASSTRTYYADSVKGRFTISRDNAKNTVYLQMNSLNPEDPAVYYCARDIRQYILYGRVDYWGQGTQVTVSS | low polyreactivity
QVQLVESGGGLVQAGGSLRLSCAASGFIFSPYAMGWYRQAPGKERELVAAISSGTRTNYADSVKGRFTISRDNAKNTVYLQMNSLKPEDTAVYYCAAKYRGTYDSRVYYWFYYWGQGTQVTVSS | high polyreactivity
QVQLVESGGGLVQAGGSLRLICAASGFAFSYYAMGWYRQAPGKEREFVASIDWSGGSTYYADSVKGRFTISRDNEKNTVYLQMNSLKPEDTAVYYCAAELDYFPGYDYWGQGTQVTVSS | low polyreactivity
QVQLVESGGGLVQAGGSLRLSCAASGRIFPYYAMGWYRQAPGKERELVATISSGGRTNYADSVKGRFTMSRDNAKNTVYVQMNSLKPEDTAVYYCAADYRTPTDVEYDYWGQGTQVTVSS | high polyreactivity
QVQLVESAGGLVQAGGSLRLSCAASGSIFTTYTIVWYRQAPGKERELVAAITSSSGSTYYADSVKGRFTISRDNAKNTVYLQMNSLKPEDTAVYYCNATYSAAVDYWGQGTQVTVSS | low polyreactivity
QVQLVESGGGLVQAGGSLRLSCAASGSTFGTYAMGWYRQAPGKERELVAAITSGGSTDYADSVKGRFTISRDNAKNTVYLQMNSLKPEDTAVYYCNATWELLSYYYLFWGYDYWGQGTQVTVSS | low polyreactivity
QVQLQESVGGLVQAGGTLRMSCAASGSFSADEDMGWYRQAQGKEREFVAGISVGGNTNYADSVKGRFTISRENAKNTVYLQINSLKPEETAVYYCAADYKPTSRSNTYYYWGQGTQVTVSS | high polyreactivity
QVQLVESGGGLVQAGGSLRLSCAASGRIFGLYAMGWYRQAPGKERELVATITRRGGSTYYADSVKGRFTISRDNAKNTVYLQMNSLKPEDTAVYYCNVRTLVQHHSSYSSRYDSWGQGTQVTVSS | high polyreactivity
